The target in assay [1] is Rat IL-23R_huFC (rat). Kind of assay: IL-23/IL-23R competitive binding ELISA, rat.
For another assay, the target named is T1, Cyno IL-23R_huFC (cyno, UniProt G7NWY5 24-353).
T1 sequence: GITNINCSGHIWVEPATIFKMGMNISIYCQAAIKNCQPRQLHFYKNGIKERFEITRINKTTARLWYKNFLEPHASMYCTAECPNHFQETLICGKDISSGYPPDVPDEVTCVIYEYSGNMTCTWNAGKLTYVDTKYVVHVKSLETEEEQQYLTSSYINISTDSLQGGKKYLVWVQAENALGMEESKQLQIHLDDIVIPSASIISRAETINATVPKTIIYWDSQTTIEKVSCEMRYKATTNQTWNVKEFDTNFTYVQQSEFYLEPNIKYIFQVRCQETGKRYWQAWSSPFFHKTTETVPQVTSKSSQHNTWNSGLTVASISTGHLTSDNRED
As to the kind of experiment: IL-23/IL-23R competitive binding ELISA, cyno. A general note: ELISA stands for enzyme-linked immunosorbent assay.

Assay [2] addresses T2, IL23R_huFC (human, UniProt Q5VWK5 24-353).
T2 sequence (looked up): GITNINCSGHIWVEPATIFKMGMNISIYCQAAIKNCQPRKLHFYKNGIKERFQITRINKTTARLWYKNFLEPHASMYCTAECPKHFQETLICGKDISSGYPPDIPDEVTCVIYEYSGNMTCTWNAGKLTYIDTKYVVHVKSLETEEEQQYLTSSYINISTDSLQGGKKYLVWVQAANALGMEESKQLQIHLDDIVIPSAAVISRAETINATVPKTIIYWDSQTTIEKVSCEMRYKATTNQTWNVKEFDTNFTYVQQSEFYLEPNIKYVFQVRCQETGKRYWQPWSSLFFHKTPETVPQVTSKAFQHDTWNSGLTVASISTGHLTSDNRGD
As to the kind of experiment: IL23-IL23R competitive ELISA, IC50 grade.

Assay [3] concerns the target T3, Recombinant human IL-23R_huFC (RnD) (human, UniProt Q5VWK5 24-353).
T3 sequence (looked up): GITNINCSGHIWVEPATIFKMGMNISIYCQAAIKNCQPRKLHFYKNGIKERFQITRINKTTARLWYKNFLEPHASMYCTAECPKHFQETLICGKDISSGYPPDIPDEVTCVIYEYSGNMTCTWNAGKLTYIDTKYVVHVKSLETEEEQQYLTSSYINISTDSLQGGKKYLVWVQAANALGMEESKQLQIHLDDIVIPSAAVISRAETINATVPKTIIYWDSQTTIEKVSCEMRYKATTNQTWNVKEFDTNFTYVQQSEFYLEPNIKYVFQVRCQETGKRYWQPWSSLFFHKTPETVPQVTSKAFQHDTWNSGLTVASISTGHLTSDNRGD
As to the kind of experiment: IL-23/IL-23R competitive binding ELISA, human.

Assay [4] addresses Rat IL-23R_huFC (rat). Kind of assay: rat ELISA vs IL-23.
Assay [5] addresses Rat IL-23R_huFC (rat). As to the kind of experiment: rat ELISA vs IL-23. This is another data set of the same source.
Assay [6] has as its target T4, IL23R_huFC (human, UniProt Q5VWK5 24-353).
T4 sequence (looked up): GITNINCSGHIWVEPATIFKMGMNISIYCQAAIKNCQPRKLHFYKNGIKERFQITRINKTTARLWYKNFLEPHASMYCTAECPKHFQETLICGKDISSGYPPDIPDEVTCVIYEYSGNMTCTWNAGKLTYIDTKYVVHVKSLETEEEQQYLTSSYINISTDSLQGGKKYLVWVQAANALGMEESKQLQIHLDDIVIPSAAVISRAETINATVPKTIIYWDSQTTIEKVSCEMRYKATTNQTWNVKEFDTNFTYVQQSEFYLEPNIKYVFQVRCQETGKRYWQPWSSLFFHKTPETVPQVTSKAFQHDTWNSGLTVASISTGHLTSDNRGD
Kind of assay: human ELISA vs IL-23.

Assay [7] deals with T4, IL23R_huFC. As to the kind of experiment: human ELISA vs IL-23. This is another data set of the same source.
Assay [8] deals with T4, IL23R_huFC. As to the kind of experiment: human ELISA vs IL-23. The source holds these as a separate data set.
The target in assay [9] is T5, IL-23R on human cells (IL-23R-expressing DB cells; human NK cells) (human, UniProt Q5VWK5 24-629).
T5 sequence (looked up): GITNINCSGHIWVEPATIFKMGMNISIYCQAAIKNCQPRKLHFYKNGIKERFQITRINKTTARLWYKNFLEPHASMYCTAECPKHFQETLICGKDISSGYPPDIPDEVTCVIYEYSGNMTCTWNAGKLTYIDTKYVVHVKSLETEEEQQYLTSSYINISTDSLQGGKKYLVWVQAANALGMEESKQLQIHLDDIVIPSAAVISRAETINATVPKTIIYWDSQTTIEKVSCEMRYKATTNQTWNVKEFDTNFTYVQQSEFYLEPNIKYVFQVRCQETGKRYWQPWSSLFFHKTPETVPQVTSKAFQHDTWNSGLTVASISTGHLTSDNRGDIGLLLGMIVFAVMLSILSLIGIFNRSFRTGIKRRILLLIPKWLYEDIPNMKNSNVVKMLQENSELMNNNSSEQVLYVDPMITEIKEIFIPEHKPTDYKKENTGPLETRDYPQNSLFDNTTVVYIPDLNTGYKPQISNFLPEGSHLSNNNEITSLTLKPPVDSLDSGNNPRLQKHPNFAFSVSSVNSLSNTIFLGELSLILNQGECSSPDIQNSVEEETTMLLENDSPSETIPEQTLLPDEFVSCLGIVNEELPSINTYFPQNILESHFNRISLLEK
As to the kind of experiment: cell-based or functional assay.

Assay [10] addresses Rat IL-23R_huFC (rat). Kind of assay: rat ELISA vs IL-23. This is another data set of the same source.
The target in assay [11] is Rat IL-23R_huFC (rat). As to the kind of experiment: rat ELISA vs IL-23. This is another data set of the same source.
Assay [12] deals with T6, Rat IL-23R_huFC (rat; human, UniProt F1LX96 39-369).
T6 sequence: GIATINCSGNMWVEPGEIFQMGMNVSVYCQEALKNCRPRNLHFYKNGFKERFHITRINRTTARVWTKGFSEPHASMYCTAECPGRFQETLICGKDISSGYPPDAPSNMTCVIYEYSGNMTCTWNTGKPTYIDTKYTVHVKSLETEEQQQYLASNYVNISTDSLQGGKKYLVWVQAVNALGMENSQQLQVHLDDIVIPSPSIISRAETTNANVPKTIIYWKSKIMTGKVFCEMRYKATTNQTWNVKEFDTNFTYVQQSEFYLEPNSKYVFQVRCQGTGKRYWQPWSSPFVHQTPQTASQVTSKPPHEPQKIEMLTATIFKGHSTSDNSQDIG
Kind of assay: rat IL-23R competitive ELISA.

The values below come from patent US20190300590A1 (PROTAGONIST THERAPEUTICS, published 2019).

Bridges are numbered along the chain shown (N, C = ends). [ ]: non-standard residue; d: D form. 2Nal = N[C@@H](Cc1ccc2ccccc2c1)C(=O)O; AEF = NCCOc1ccc(C[C@H](N)C(=O)O)cc1; Pen = CC(C)(S)[C@H](N)C(=O)O; Thp = NC1(C(=O)O)CCOCC1; Abu = CC[C@H](N)C(=O)O; AEA = NCCOCC(=O)O

Usually IC50 stands for the concentration at which inhibition is half-maximal.

B1: Peptide 980 (peptide)
peptide: Ac-[Abu]QTWQC[AEF][2Nal][Thp]ENN-NH2
modifications: thioether 1-6
Regarding B1, the IC50 with Rat IL-23R_huFC [1] is 3 nM; with Cyno IL-23R_huFC, 1.3 nM.

B2: (Hy-FPTWEWYWCNRD-NH2)2, oxidized dimer through the cysteine (peptide)
peptide: H-FPTWEWYWCNRD-NH2
modifications: also: oxidized dimer via intermolecular Cys9-Cys9 disulfide
As to B2, the IC50 with IL23R_huFC [2] was in the range of 1000 to 10000 nM.

B3: Peptide 993 (peptide)
peptide: RXQTWQCFXXENN
modifications: Ac-[(D)Arg]-Cyclo-[[Abu]-QTWQC]-[Phe[4-(2-aminoethoxy)]]-[2-Nal]-[4-amino-4-carboxy-tetrahydropyran]-ENN-NH2; cyclized by Abu-Cys thioether
For B3, the IC50 (in the assay with Rat IL-23R_huFC [1]; with Cyno IL-23R_huFC; in assay [3]) was 2 nM in each case.

B4: Ac-CADWV-[(D)Pen]-YWHTFG-[AEA]-[(D)-Lys]-NH2 (peptide)
peptide: CADWVXYWHTFGXK
modifications: as bracketed in name; cyclized via Cys and Pen
B4 returned an IC50 with Rat IL-23R_huFC [4] of 1000 to 10000 nM.

B5: Ac-CQTWQ-[Pen]-YW-[α-MeLeu]-ENG-NH2 (peptide)
peptide: CQTWQXYWLENG
modifications: as bracketed in name; cyclized via Cys and Pen
With B5, the IC50 with Rat IL-23R_huFC [5] and in the assay with IL23R_huFC [6] was 100 to 1000 nM in each case.

B6: Ac-CQTWQ-[Pen]-YW-[(D)Asn]-ENG-NH2 (peptide)
peptide: Ac-CQTWQ[Pen]YW[dN]ENG-NH2
modifications: disulfide 1-6
SMILES: CC(=O)N[C@H]1CSSC(C)(C)[C@@H](C(=O)N[C@@H](Cc2ccc(O)cc2)C(=O)N[C@@H](Cc2c[nH]c3ccccc23)C(=O)N[C@H](CC(N)=O)C(=O)N[C@@H](CCC(=O)O)C(=O)N[C@@H](CC(N)=O)C(=O)NCC(N)=O)NC(=O)[C@H](CCC(N)=O)NC(=O)[C@H](Cc2c[nH]c3ccccc23)NC(=O)[C@H]([C@@H](C)O)NC(=O)[C@H](CCC(N)=O)NC1=O
Consider B6, for which the IC50 in the assay with IL23R_huFC [7] lay in the range of 1000 to 10000 nM.

B7: [Ac-[(D)Lys]-Cyclo-[[Abu]-QTWQC]-[Phe(4-OMe)]-[2-Nal]-[α-MeLys]-ENG-NH2]2 PEG25 (peptide)
peptide: KXQTWQCFXKENG
modifications: not fully specified; as bracketed in name; thioether cyclo; PEG25 linker through α-MeLys
With B7, the IC50 with IL23R_huFC [8] was under 10 nM; with Rat IL-23R_huFC [10] it was 10 to 25 nM. The “pStat3 HTRF IC50” value in assay [9] was under 10 nM.

B8: Ac-[Pen]-RTWQCYWRKFG-[AEA]-[(D)-Lys]-NH2 (peptide)
peptide: Ac-[Pen]RTWQCYWRKFG[AEA][dK]-NH2
modifications: disulfide 1-6 (inferred)
In the assay with Rat IL-23R_huFC [5], B8 displayed an IC50 of 100 to 1000 nM.

B9: [Ac-[(D)Lys]-Cyclo-[[Abu]-QTWQC]-[Phe(4-OMe)]-[2-Nal]-[α-MeLeu]-ENG-NH2]2 DIG (peptide)
peptide: KXQTWQCFXLENG
modifications: not fully specified; as bracketed in name; thioether cyclo; DIG linker through (D)Lys
For B9, the IC50 was under 10 nM with IL23R_huFC [8] and 25 to 100 nM with Rat IL-23R_huFC [11]. For the same molecule, the “pStat3 HTRF IC50” value in assay [9] is under 10 nM.

B10: Ac-CQTWQCYWR-[Aib]-NG-[AEA]-[(D)Lys]-NH2 (peptide)
peptide: CQTWQCYWRXNGXK
modifications: Ac-; [Aib]; [AEA]; [(D)Lys]; -NH2
Consider B10, for which, in the assay with Rat IL-23R_huFC [12], the IC50 stood at 1060 nM.
